Results reported in US20180155451A1 (published 2018).

T1: FcγRIIa R (human FcγRIIa, allotype R, Arg at position 131), extracellular domain with C-terminal His tag (human, UniProt P12318 34-217)
T1 construct: extracellular domain; expressed in FreeStyle293 cells; analyte in Biacore; also called 2aR; FcgRIIa R
T1 sequence (looked up): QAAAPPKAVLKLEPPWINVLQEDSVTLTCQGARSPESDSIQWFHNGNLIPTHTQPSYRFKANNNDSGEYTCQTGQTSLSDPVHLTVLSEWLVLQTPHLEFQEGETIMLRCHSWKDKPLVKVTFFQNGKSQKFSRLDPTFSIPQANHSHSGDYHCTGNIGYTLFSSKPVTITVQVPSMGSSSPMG


Assays:
[1] = molecular target: T2, FcγRIIIa extracellular domain with C-terminal His tag (human, UniProt P08637 17-208); test: SPR relative binding; GpH7-A5/GpH7-B3/GpL16-k0 = 100
T2 construct: extracellular domain; also called FcgRIIIa; 3a; not shown: His tag at the C terminus
T2 sequence (P08637 17-208): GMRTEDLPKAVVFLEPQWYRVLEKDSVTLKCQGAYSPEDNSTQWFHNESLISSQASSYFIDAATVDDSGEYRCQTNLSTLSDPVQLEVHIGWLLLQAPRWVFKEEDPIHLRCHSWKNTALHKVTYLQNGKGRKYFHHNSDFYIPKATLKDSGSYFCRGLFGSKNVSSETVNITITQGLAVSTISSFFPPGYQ
Procedure: (§1) Analysis of interaction between objective antibody and the FcγR was carried out using Biacore T100 (GE Healthcare). HBS-EP+ (GE Healthcare) was used as the running buffer, and the measurement temperature was set to 25° C. Chips produced by immobilizing the antigen peptide by the amine coupling method to a Series S Sencor Chip CM5 (GE Healthcare), or alternatively, chips produced by allowing preliminarily biotinylated antigen peptides to interact with and immobilize onto a Series S Sensor Chip SA (certified) (GE Healthcare) were used. Antibodies of interest were captured onto an antigen peptide-immobilized chip, and allowed to interact to each FcγR diluted with running buffer. To regenerate and repeatedly use the chip, the antibodies captured on the chip were washed off by reacting 10 mM glycine-HCl, pH 1.5.
(§2) The FcγR-binding activity of each antibody was assessed primarily using as an indicator the FcγR-binding activity and dissociation constant for FcγR.

[2] = molecular target: T1, FcγRIIa R (human FcγRIIa, allotype R, …); test: SPR (Biacore), relative binding vs GpH7-B3/GpL16-k0
Procedure: as §1, §2

| Binder | He/Con_3a [1] | Ho/Con_2aR [2] |
| --- | --- | --- |
| GpH7-A5/GpH7-B3 variant A330_05P/GpL16-k0 (antibody, human IgG1, kappa, also called He Ab A330_05P) heavy 1: not shown heavy 2: not shown light: DIVMTQSPLSLPVTPGEPASISCQASESLVHSNRNTYLHWYLQKPGQSPQLLIYKVSNRFSGVPDRFSGSGSGTDFTLKISRVEAEDVGVYYCSQNTHVPPTFGQGTKVEIERTVAAPSVFIFPPSDEQLKSGTASVVCLLNNFYPREAKVQWKVDNALQSGNSQESVTEQDSKDSTYSLSSTLTLSKADYEKHKVYACEVTHQGLSSPVTKSFNRGEC | 155 % of control | – |
| GpH7-A5/GpH7-B3 variant G236_15Y/GpL16-k0 (antibody, human IgG1, kappa, also called He Ab G236_15Y) heavy 1: not shown heavy 2: not shown light: DIVMTQSPLSLPVTPGEPASISCQASESLVHSNRNTYLHWYLQKPGQSPQLLIYKVSNRFSGVPDRFSGSGSGTDFTLKISRVEAEDVGVYYCSQNTHVPPTFGQGTKVEIERTVAAPSVFIFPPSDEQLKSGTASVVCLLNNFYPREAKVQWKVDNALQSGNSQESVTEQDSKDSTYSLSSTLTLSKADYEKHKVYACEVTHQGLSSPVTKSFNRGEC | 121 % of control | – |
| GpH7-B3 variant Y296_20W/GpL16-k0 (antibody, human IgG1, kappa, homodimerized antibody, mutation in both H chains; also called Ho Ab) heavy: not shown light: DIVMTQSPLSLPVTPGEPASISCQASESLVHSNRNTYLHWYLQKPGQSPQLLIYKVSNRFSGVPDRFSGSGSGTDFTLKISRVEAEDVGVYYCSQNTHVPPTFGQGTKVEIERTVAAPSVFIFPPSDEQLKSGTASVVCLLNNFYPREAKVQWKVDNALQSGNSQESVTEQDSKDSTYSLSSTLTLSKADYEKHKVYACEVTHQGLSSPVTKSFNRGEC | – | 107 relative, control = 100 |
| GpH7-A5/GpH7-B3 variant H268_18N/GpL16-k0 (antibody, human IgG1, kappa, also called He Ab H268_18N) heavy 1: not shown heavy 2: not shown light: DIVMTQSPLSLPVTPGEPASISCQASESLVHSNRNTYLHWYLQKPGQSPQLLIYKVSNRFSGVPDRFSGSGSGTDFTLKISRVEAEDVGVYYCSQNTHVPPTFGQGTKVEIERTVAAPSVFIFPPSDEQLKSGTASVVCLLNNFYPREAKVQWKVDNALQSGNSQESVTEQDSKDSTYSLSSTLTLSKADYEKHKVYACEVTHQGLSSPVTKSFNRGEC | 104 % of control | – |
| GpH7-A5/GpH7-B3 variant E333_09D/GpL16-k0 (antibody, human IgG1, kappa, also called He Ab E333_09D) heavy 1: not shown heavy 2: not shown light: DIVMTQSPLSLPVTPGEPASISCQASESLVHSNRNTYLHWYLQKPGQSPQLLIYKVSNRFSGVPDRFSGSGSGTDFTLKISRVEAEDVGVYYCSQNTHVPPTFGQGTKVEIERTVAAPSVFIFPPSDEQLKSGTASVVCLLNNFYPREAKVQWKVDNALQSGNSQESVTEQDSKDSTYSLSSTLTLSKADYEKHKVYACEVTHQGLSSPVTKSFNRGEC | 112 % of control | – |
| GpH7-A5/GpH7-B3 variant E333_03V/GpL16-k0 (antibody, human IgG1, kappa, also called He Ab E333_03V) heavy 1: not shown heavy 2: not shown light: DIVMTQSPLSLPVTPGEPASISCQASESLVHSNRNTYLHWYLQKPGQSPQLLIYKVSNRFSGVPDRFSGSGSGTDFTLKISRVEAEDVGVYYCSQNTHVPPTFGQGTKVEIERTVAAPSVFIFPPSDEQLKSGTASVVCLLNNFYPREAKVQWKVDNALQSGNSQESVTEQDSKDSTYSLSSTLTLSKADYEKHKVYACEVTHQGLSSPVTKSFNRGEC | 103 % of control | – |
| GpH7-B3 variant Y296_14T/GpL16-k0 (antibody, human IgG1, kappa, homodimerized antibody, mutation in both H chains; also called Ho Ab) heavy: not shown light: DIVMTQSPLSLPVTPGEPASISCQASESLVHSNRNTYLHWYLQKPGQSPQLLIYKVSNRFSGVPDRFSGSGSGTDFTLKISRVEAEDVGVYYCSQNTHVPPTFGQGTKVEIERTVAAPSVFIFPPSDEQLKSGTASVVCLLNNFYPREAKVQWKVDNALQSGNSQESVTEQDSKDSTYSLSSTLTLSKADYEKHKVYACEVTHQGLSSPVTKSFNRGEC | – | 90.3 relative, control = 100 |
| GpH7-A5/GpH7-B3 variant E333_20W/GpL16-k0 (antibody, human IgG1, kappa, also called He Ab E333_20W) heavy 1: not shown heavy 2: not shown light: DIVMTQSPLSLPVTPGEPASISCQASESLVHSNRNTYLHWYLQKPGQSPQLLIYKVSNRFSGVPDRFSGSGSGTDFTLKISRVEAEDVGVYYCSQNTHVPPTFGQGTKVEIERTVAAPSVFIFPPSDEQLKSGTASVVCLLNNFYPREAKVQWKVDNALQSGNSQESVTEQDSKDSTYSLSSTLTLSKADYEKHKVYACEVTHQGLSSPVTKSFNRGEC | 101 % of control | – |
| GpH7-B3 variant Y296_18N/GpL16-k0 (antibody, human IgG1, kappa, homodimerized antibody, mutation in both H chains; also called Ho Ab) heavy: not shown light: DIVMTQSPLSLPVTPGEPASISCQASESLVHSNRNTYLHWYLQKPGQSPQLLIYKVSNRFSGVPDRFSGSGSGTDFTLKISRVEAEDVGVYYCSQNTHVPPTFGQGTKVEIERTVAAPSVFIFPPSDEQLKSGTASVVCLLNNFYPREAKVQWKVDNALQSGNSQESVTEQDSKDSTYSLSSTLTLSKADYEKHKVYACEVTHQGLSSPVTKSFNRGEC | – | 93.7 relative, control = 100 |
| GpH7-B3 variant Y296_13S/GpL16-k0 (antibody, human IgG1, kappa, homodimerized antibody, mutation in both H chains; also called Ho Ab) heavy: not shown light: DIVMTQSPLSLPVTPGEPASISCQASESLVHSNRNTYLHWYLQKPGQSPQLLIYKVSNRFSGVPDRFSGSGSGTDFTLKISRVEAEDVGVYYCSQNTHVPPTFGQGTKVEIERTVAAPSVFIFPPSDEQLKSGTASVVCLLNNFYPREAKVQWKVDNALQSGNSQESVTEQDSKDSTYSLSSTLTLSKADYEKHKVYACEVTHQGLSSPVTKSFNRGEC | – | 88.1 relative, control = 100 |
